Laboratory results taken from patent US20090162390A1.

Columns and labels:
Experiment in all cases: cell-based or functional assay
[1] = target: HIV-2 strain 7312A envelope polypeptide (wild-type) (HIV-2 (isolate 7312A))
[2] = target: HIV-1 env glycoprotein (YU2) (HIV-1 (YU2)) (UniProt P35961)
[3] = target: HIV-2 7312A envelope with site-directed mutations 660 (K to A), 662 (N to D), 663 (S to K) and 665 (D to A) of SEQ ID NO:2 (HIV-2 (isolate 7312A))
[4] = target: HIV-2 UC1 envelope polypeptide (wild-type) (HIV-2 (strain UC1)) (UniProt Q76638)
[5] = target: HIV-2 ST envelope polypeptide (wild-type) (HIV-2 (strain ST)) (UniProt P20872)
[6] = target: HIV-2 7312A envelope with site-directed substitutions at 675 (L to I) and 676 (A to T) (HXB2 numbering) (HIV-2 (isolate 7312A))

Substance	neutralization IC50 (JC53bl-13 HIV entry assay) [1] [µg/mL]	neutralization IC50 (JC53bl-13 HIV entry assay) [2] [µg/mL]	neutralization IC50 (JC53bl-13 HIV entry assay) [3] [µg/mL]	neutralization IC50 (JC53bl-13 HIV entry assay) [4] [µg/mL]	neutralization IC50 (JC53bl-13 HIV entry assay) [5] [µg/mL]	neutralization IC50 (JC53bl-13 HIV entry assay) [6] [µg/mL]
2F5 monoclonal antibody	> 50	25	< 0.1			
4E10 monoclonal antibody	> 50	25		1.2	0.1	0.8
b12 monoclonal antibody	> 50	3				
